Results on six molecules are retold here after US8623627B2, “Labelling of fusion proteins with synthetic probes” (New England Biolabs, Inc, priority 2006, dated 2014).

In one series the target is T1, 6×His-^NAGT (Homo sapiens, UniProt P16455, A127T/A154D/C150Q/C62A/G131K/G132T/G153L/K125A/K32I/L33F/M134L/N157G/Q115S/Q116H/R128A/R135S/S151G/S152D/S159E).
T1 construct: ^NAGT is a 182 amino acid mutant of ^wtAGT in which the last 25 amino acids are deleted
T1 sequence (P16455 1-182 K32I/L33F/C62A/Q115S/Q116H/K125A/A127T/R128A/G131K/G132T/M134L/R135S/C150Q/S151G/S152D/G153L/A154D/N157G/S159E): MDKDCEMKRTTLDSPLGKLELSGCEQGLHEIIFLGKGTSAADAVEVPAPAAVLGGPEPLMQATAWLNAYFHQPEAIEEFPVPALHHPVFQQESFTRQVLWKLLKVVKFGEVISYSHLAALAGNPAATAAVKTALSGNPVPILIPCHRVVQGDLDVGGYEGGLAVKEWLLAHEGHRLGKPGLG
Briefly: In vitro specific dual labelling assay, labelling of 6×His-^NAGT. Type of series: biochemical. The settings on record: equimolar GST-ACT1 and 6×His-^NAGT 0.5 μM, single substrate 5 μM, 24° C., 60 minutes. As for the experimental part: (§1) Fluorescent dye-labelled protein mixtures were analyzed by SDS-PAGE, see Example 12. GST-ACT1: fusion protein of ACT 1 (SEQ ID NO:1) with glutathione S-transferase (GST). 6×His-AGT: fusion protein of ^NAGT (SEQ ID NO:2) with the short peptide 6×His. […] BCFL: compound 5 (Example 4). BCCy5: compound 10 (Example 8).
(§2) Labelling reactions were quenched by addition of 4× SDS buffer (8% SDS, 10% β-mercaptoethanol, 240 mM Tris pH 6.8, 40% glycerol) and incubation for 5 min at 95° C. Fluorescent dye-labelled protein mixtures were analyzed by SDS-PAGE as described above.

The target of another series is T2, GST-ACT1 (Homo sapiens, UniProt P16455, A127T/A154D/C150Q/C62A/G131S/G132T/G153L/K125A/K32I/L33F/M134L/N157G/Q115S/Q116H/R128A/R135D/S151G/S152D/S159M/V148E/Y114R).
T2 construct: made in house
T2 sequence (P16455 1-182 K32I/L33F/C62A/Y114R/Q115S/Q116H/K125A/A127T/R128A/G131S/G132T/M134L/R135D/V148E/C150Q/S151G/S152D/G153L/A154D/N157G/S159M): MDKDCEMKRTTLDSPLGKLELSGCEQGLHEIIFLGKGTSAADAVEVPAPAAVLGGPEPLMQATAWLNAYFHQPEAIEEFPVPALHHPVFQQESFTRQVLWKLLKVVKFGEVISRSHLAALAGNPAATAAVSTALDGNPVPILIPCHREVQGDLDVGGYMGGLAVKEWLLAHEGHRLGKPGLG
Briefly: In vitro specific dual labelling assay, labelling of GST-ACT1. To be noted: equimolar GST-ACT1 and 6×His-^NAGT 0.5 μM, single substrate 5 μM, 24° C., 60 minutes. The series is classed as biochemical. As for the experimental part:
as §1, §2

Series [1] is described as follows: Reaction rates of labelling of GST fusion proteins with BCFL. To be noted: for kBCFL: second-order rate constant, GST-fusion protein with BCFL, 50 mM HEPES pH 7.2, 24° C. The series is classed as biochemical. As for the experimental part: (§3) The fluorescent readout of an SDS gel run after different time of incubation is shown on top with the corresponding graph at the bottom. The percentage of ACT-Fluorescein conjugate (% ACT-FL) formed from ACT is shown vs. time of incubation (min). […] GST-ACT10: fusion protein of ACT 10 (SEQ ID NO:12) with glutathione S-transferase (GST).
(§4) The genes of mutants isolated after phage selection according to Example 9 were amplified by PCR using primers 6 (N, AGT, SEQ ID NO:8) and 7 (C, AGT, SEQ ID NO:9) that contain, respectively, BamH1 and EcoR1 restriction sites for subsequent subcloning into pGEX-2T vector (Amersham Biosciences, Otelfingen, Switzerland). Expression and purification of proteins as GST-ACT fusion proteins were performed as previously described for AGT fusion proteins (A. Juillerat, T. Gronemeyer, A. Keppler, S. Grendreizig, H. Pick, H. Vogel, K. Johnsson, Chem. Biol. 10:313, 2003). […] Samples were taken at different times and the labelling reaction was quenched by addition of 4× SDS buffer (8% SDS, 10% β-mercaptoethanol, 240 mM Tris pH 6.8, 40% glycerol) and incubation at 95° C. for 5 min. The reaction advancement was determined by detection of the fluorescent dye-labelled proteins in SDS-PAGE gel and quantification of fluorescence intensity using a Pharox FX™ molecular imager. The data were fitted to a pseudo-first order reaction model. Second-order rate constants were then obtained by dividing the pseudo first-order constant by the concentration of fluorogenic substrate.

The nature of series [2]: Urea-induced unfolding, read out as ACT-Fluorescein formed with BCFL. Type of series: physicochemical. To be noted: for half unfolding urea concentration C1/2: protein 0.5 μM, urea 0 to 8 M for 30 minutes, then 20 μM BCFL for 2 hours. As for the experimental part:
Shown is the percentage of ACT-Fluorescein (% ACT-FL) formed. The value obtained at 0 M urea [(NH2)2CO] is set to 100%. Protein (0.5 μM) was incubated in kinetic buffer (50 mM HEPES, pH 7.2, 1 mM DTT) supplemented with urea (0 to 8 M) for 30 minutes. Then the solution was adjusted to 20 μM BCFL and incubated for 2 hours. Samples were then boiled 5 min at 95° C. in SDS buffer. Fluorescent dye-labelled protein mixtures were analyzed by SDS-PAGE. The data set was fitted with Y=100/(1+10^((log C1/2−X)*HillSlope)) to get the half unfolding urea concentration C1/2. The following values of C1/2 were found for the different mutants: • ACT1 2.8±0.1 M; ACT9 4.1±0.1 M; ACT10 5.1±0.2 M.

Series [3] in a line: Reaction rates of labelling of GST fusion proteins with BGFL. The series is classed as biochemical. To be noted: for kBGFL: second-order rate constant, GST-fusion protein with BGFL, 50 mM HEPES pH 7.2, 24° C. As for the experimental part: as §3, §4
For series [4] the following is noted: versus ^wtAGT; cited from earlier work.

Take `Nc1ccnc(OCc2ccc(CNC(=O)c3ccc4c(c3)C3(OC4=O)c4ccc(O)cc4Oc4cc(O)ccc43)cc2)n1` [BCFL, N-[4-(4-Aminopyrimidin-2-yloxymethyl)-benzyl]-fluorescein-6-carboxamide]: the “labelling of 6×His-^NAGT” value at 6×His-^NAGT was determined as 76%. Besides, the “labelling of GST-ACT1” value at GST-ACT1 is “complete labelling”.

In the case of “N-[4-(4-Aminopyrimidin-2-yloxymethyl)-benzyl]-Cy5-carboxamide [BCCy5]”, the “labelling of 6×His-^NAGT” value on 6×His-^NAGT is on record as 6%. Also, at GST-ACT1, the “labelling of GST-ACT1” value is reported as “complete labelling”.

In the case of “O^6-[4-(Cy5)-Aminomethyl]-benzyl guanine [BGCy5]”, the “labelling of 6×His-^NAGT” value at 6×His-^NAGT is “complete labelling”.

B1: ACT 10: alkylcytosine transferase 10, SEQ ID NO:12, from error prone PCR of ACT9 (protein)
chain: MDKDCEMKRTTLDSPLGKLELSGCEQGLHEIIFLGKGTSAADAVEVPAPAAVLGGPEPLIQATAWLNAYFHQPEAIEEFPVPALHHPVFQQESFTRQVLWKLLKVVKFGEVISESHLAALVGNPAATAAVNTALDGNPVPILIPCHRVVQGDSDVGPYLGGLAVKEWLLAHEGHRLGKPGLG
modifications: alyklcytosine transferase 10 derived from O6- alkylguanine-DNA alkyltransferase
Regarding B1, in series [1], the reactivity towards benzylcytosine result was “high reactivity” and the kBCFL was found to be 1130 M⁻¹ s⁻¹. In series [1] (FIG. 2, 0.5 μM GST-ACT10 with BCFL), this molecule showed a kBC of 1130 ± 150 M⁻¹ s⁻¹. Further, the “stability against denaturation by urea” value in series [2] (4 M urea) was “high stability”. Moreover, the “half unfolding urea concentration C1/2” value in series [2] worked out at 5.1 ± 0.2 M. The molecule also registered a kBG in series [3] (FIG. 2, 0.5 μM GST-ACT10 with BGFL) of about 10 M⁻¹ s⁻¹. In addition, the kBGFL in series [3] was determined as 10 M⁻¹ s⁻¹.

B2: ^NAGT: 182 amino acid mutant of ^wtAGT, SEQ ID NO:2, starting point for directed evolution (protein)
chain: MDKDCEMKRTTLDSPLGKLELSGCEQGLHEIIFLGKGTSAADAVEVPAPAAVLGGPEPLMQATAWLNAYFHQPEAIEEFPVPALHHPVFQQESFTRQVLWKLLKVVKFGEVISYSHLAALAGNPAATAAVKTALSGNPVPILIPCHRVVQGDLDVGGYEGGLAVKEWLLAHEGHRLGKPGLG
modifications: O6-alkylguanine-DNA alkyltransferase (AGT) mutant
B2: the “higher activity towards benzylguanine derivatives than wild-type ^wtAGT” value in series [4] is reported as “approximately 50 fold”. In series [1], this molecule showed a kBCFL of 26 M⁻¹ s⁻¹. The same molecule displayed a kBGFL in series [3] of 28000 M⁻¹ s⁻¹.

B3: ACT 1: alkylcytosine transferase 1, SEQ ID NO:1, derived from ^NAGT by directed evolution (protein)
chain: MDKDCEMKRTTLDSPLGKLELSGCEQGLHEIIFLGKGTSAADAVEVPAPAAVLGGPEPLMQATAWLNAYFHQPEAIEEFPVPALHHPVFQQESFTRQVLWKLLKVVKFGEVISRSHLAALAGNPAATAAVSTALDGNPVPILIPCHREVQGDLDVGGYMGGLAVKEWLLAHEGHRLGKPGLG
modifications: alkylcytosine transferase 1 derived from O6- alkylguanine-DNA alkyltransferase
Take B3: in series [1], the kBCFL came to 730 M⁻¹ s⁻¹. Also, the “half unfolding urea concentration C1/2” value in series [2] came out at 2.8 ± 0.1 M. The same molecule registered a kBGFL in series [3] of under 10 M⁻¹ s⁻¹.
